Columns and labels:
[1] = Enzymatic assay of purified glutamate dehydrogenases, amination of 2-ketoisovalerate (NADPH consumption at 340 nm); format: biochemical
Method: (§1) To characterize the enzymes, both the wild-type glutamate dehydrogenase GDHwt and mutant GDH2 were added an N-terminal 6×His-tag, overexpressed, and purified through Ni-NTA columns. The kinetic parameters for […] of 2-ketoglutarate (cognate substrate) and 2-ketoisovalerate or 2-ketobutyrate (nonnatural substrates) were determined by monitoring the consumption of NADPH at 340 nm (FIG. 6). […] The increase in binding affinity is very helpful since high concentration of 2-ketobutyrate interferes with cellular metabolic activities (see, e.g. Daniel et al. (1983) Mol Gen Genet 190(3):452-458). […]
(§2) Both gene fragments encoding wildtype glutamate dehydrogenase and GDH2 were amplified using primers GDHbamfwd and GDHbamrev. […] Protein concentration was determined by measuring UV absorbance at 280 nm.
(§3) Enzymatic assay was performed in assay buffer (100 mM Tris buffer, pH 8.0) containing 0.2M NH4Cl, 0.2 mM NADPH, and various concentrations of 2-ketoacids. The reactions were started by adding the purified enzymes, and the consumption of NADPH was monitored at 340 nm (extinction coefficient, 6.22 mM^−1 cm^−1). Kinetic parameters (kcat and Km) were determined by fitting initial velocity data to the Michaelis-Menten equation using Origin.

[2] = Enzymatic assay of purified glutamate dehydrogenases, amination of 2-ketoglutarate (NADPH consumption at 340 nm); format: biochemical
Method: as §1, §2, §3

[3] = tested on: threonine; assay: Production of L-homoalanine from glucose by E. coli overexpressing GDH2 and threonine dehydratases; format: cell-based, Escherichia coli; settings: overexpression in BW25113
Source text: FIG. 5A is a graph with horizontal axis labels defined as follows: (1) BW25113; (2) BW25113 with overexpression of GDH2; (3) ATCC98082 with overexpression of TdcB & GDH2; (4) ATCC98082 with overexpression of IlvAEc & GDH2; (5) ATCC98082 with overexpression of IlvABS & GDH2; and (6) ATCC98082 (ArhtA) with overexpression of IlvABS and GDH2. FIG. 5B is a graph showing the yield of L-homolalanine biosynthesis from glucose. The error bars represent standard deviations from three independent experiments.
To test the production of L-homoalanine from glucose, E. coli strain ATCC98082 harboring plasmid pZS_thrO (see, e.g. Zhang et al. (2008) Proc Natl Acad Sci USA 105(52):20653-20658) was transformed with pZElac_tdcB_GDH, pZElac_ilvAEC_GDH and pZElac_ilvABS_GDH. These transformants were subjected to fermentation using the following production medium: 30 g glucose, 17 g (NH4)2SO4, 2 g KH2PO4, 1 g MgSO4.7H2O, 2 g yeast extract, 0.1 g L-valine, 0.01 g FeSO4:7H2O and 0.01 g MnSO4:7H2O per liter. Antibiotics were added appropriately (ampicillin 50 mg/L, spectinomycin 25 mg/L). Overnight 2XYT culture were diluted 25× into fermentation medium and 0.1 mM isopropyl-b-D-thiogalactoside (IPTG) was added to induce protein expression. In shake flask experiments, the culture medium was buffered by addition of 30 g/L CaCO3. Cultures were incubated in 33° C. shaker (250 rpm) for 40-50 h until glucose was consumed.

[4] = tested on: valine auxotrophic E. coli (ΔavtA, ΔilvE); assay: Growth rescue of valine auxotrophic E. coli (ΔavtA, ΔilvE) in M9 minimal medium; format: cell-based, Escherichia coli; settings: absence of valine
Source text: FIG. 4A illustrates a binding pocket of Clostridium symbiosum glutamate dehydrogenase (PDB: 1BGV) complexed with its natural substrate glutamate. Residues K89, T193, V377, and S380 are within a radius of 6 Å of the γ-carbon of glutamate. […] The binding pocket is conserved, and the corresponding residues of E. coli GDH are K92, T195, V377, and S380. These residues were subjected to site-saturation mutagenesis with randomized NNK codon. A library size of 2 million members was transformed into valine auxotrophic E. coli and selected for mutants growing in M9 minimal medium. FIG. 4C is a graph showing the growth curve of E. coli (AavtA, AilvE) transformants in minimal medium. −Val means absence of valine. +Val means presence of valine. Or cells are transformed with GDH1 (K92L, T195A, V377A, and S380C mutations) or GDH2 (K92V and T195S mutations) mutant.
To this end, we have developed a selection strategy to evolve GDH. Deletion of transaminase genes avtA and ilvE from the chromosome makes wild-type E. coli valine auxotrophic (see, e.g. Wang et al. (1987) J Bacteriol 169(9):4228-4234), whose growth in minimal medium can be rescued by a mutant GDH active on aminating the valine precursor 2-ketoisovalerate (FIG. 3B). […]

[5] = Enzymatic assay of purified glutamate dehydrogenases, amination of 2-ketobutyrate (NADPH consumption at 340 nm); format: biochemical
Method: To characterize the enzymes, both the wild-type glutamate dehydrogenase GDHwt and mutant GDH2 were added an N-terminal 6×His-tag, overexpressed, and purified through Ni-NTA columns. The kinetic parameters for […] of 2-ketoglutarate (cognate substrate) and 2-ketoisovalerate or 2-ketobutyrate (nonnatural substrates) were determined by monitoring the consumption of NADPH at 340 nm (FIG. 6). […] The increase in binding affinity is very helpful since high concentration of 2-ketobutyrate interferes with cellular metabolic activities (see, e.g. Daniel et al. (1983) Mol Gen Genet 190(3):452-458). On the basis of the crystallographic model for the active site of GDH, amino group of K92 hydrogenbonds to the γ-carboxyl group of 2-ketoglutarate and determines the substrate specificity (see, e.g. Stillman et al. (1993) J Mol Biol 234(4):1131-1139). Mutation of lysine to valine increases the hydrophobic character of the binding pocket, which explains why the specificity constant kcat/Km of GDH2 towards 2-ketobutyrate is 50-fold higher than that towards the natural substrate 2-ketoglutarate.
Both gene fragments encoding wildtype glutamate dehydrogenase and GDH2 were amplified using primers GDHbamfwd and GDHbamrev. After digestion with BamHI, the gene fragments were inserted into expression plasmid pQE9 (Qiagen). The resulting expression plasmids were transformed into E. coli strain BL21(DE3) harboring pREP4 (Qiagen). Cells were inoculated from an overnight preculture at 1/100 dilution and grown in 200 mL 2XYT rich medium containing 50 mg/L ampicillin and 25 mg/L kanamycin. At an OD600 of 0.6, recombinant proteins were expressed by induction of the cell cultures with 0.1 mM IPTG, followed by incubation at 30° C. overnight. Overexpressed proteins were then purified with Ni-nitrilotriacetic acid columns. Protein concentration was determined by measuring UV absorbance at 280 nm.
as §3

[6] = tested on: 2-ketobutyrate; assay: Conversion of fed 2-ketobutyrate to L-homoalanine by E. coli BW25113 overexpressing amination enzymes; format: cell-based, Escherichia coli; set-up: L-homoalanine produced: unit not given here
Method: FIG. 2 is a graph comparing different amination enzymes on the production of L-homoalanine. E. coli cultures were inoculated in M9 medium with addition of 10 g/L 2-ketobutyrate and incubated at 37° C. for 24 h. The horizontal axis labels are defined as follows: (A) Wild-type E. coli BW25113; overexpression of (B) transaminase IlvE (C) valine dehydrogenase from Streptomyces avermitilis; (D) valine dehydrogenase from Streptomyces coelicolor, (E) valine dehydrogenase from Streptomyces fradiae; (F) evolved glutamate dehydrogenase GDH1; and (G) evolved glutamate dehydrogenase GDH2. The error bars represent standard deviations from three independent experiments.
In order to check if any endogenous transaminase of E. coli can work on 2-ketobutyrate, we fed 10 g/L 2-ketobutyrate to wildtype E. coli strain BW25113 growing in M9 medium. […] Since the branched-chain amino acid aminotransferase IlvE (see, e.g. Inoue K, et al. (1988) J Biochem 104(5):777-784) is likely to be a functional candidate, we cloned and overexpressed IlvE in BW25113, which increased the production of L-homoalanine to […] (FIG. 2B). […] However, high concentration of glutamate is needed to drive the reaction equilibrium because transamination is a reversible reaction process. Even under such extreme conditions, the conversion rate of transaminating 2-ketobutyrate to L-homoalanine is only 32%.
To test the conversion of 2-ketobutyrate to L-homoalanine, plasmids pZElac_IlvE, pZElac_VDHsa, pZElac_VDHsc, pZElac_VDHsf, pZElac_GDH and pZElac_GDH2 were transformed into BW25113. The transformants were inoculated in M9 medium with 5 g/L yeast extract, 10 g/L ammonium hydrochloride and 20 g/L glucose. Once OD reached ˜1.0, 10 g/L 2-ketobutyrate plus 0.1 mM IPTG were added and incubated at 37° C. for 24 h. Amino acids were quantified as o-phthaldialdehyde (OPA) derivatives by HPLC analysis.

B1: GDH2: evolved E. coli glutamate dehydrogenase mutant with K92V and T195S mutations (protein, listed as Escherichia coli)
chain: MDQTYSLESFLNHVQKRDPNQTEFAQAVREVMTTLWPFLEQNPKYRQMSLLERLVEPERVIQFRVVWVDDRNQIQVNRAWRVQFSSAIGPYVGGMRFHPSVNLSILKFLGFEQTFKNALTTLPMGGGKGGSDFDPKGKSEGEVMRFCQALMTELYRHLGADTDVPAGDIGVGGREVGFMAGMMKKLSNNTACVFSGKGLSFGGSLIRPEATGYGLVYFTEAMLKRHGMGFEGMRVSVSGSGNVAQYAIEKAMEFGARVITASDSSGTVVDESGFTKEKLARLIEIKASRDGRVADYAKEFGLVYLEGQQPWSLPVDIALPCATQNELDVDAAHQLIANGVKAVAEGANMPTTIEATELFQQAGVLFAPGKAANAGGVATSGLEMAQNAARLGWKAEKVDARLHHIMLDIHHACVEHGGEGEQTNYVQGANIAGFVKVADAMLAQGVI
**Q.** With B1 as the molecule, how does the “kcat towards 2-ketoisovalerate relative to GDHwt” value [1] read?
**A.** The value was “five times higher kcat than GDHwt”.

**Q.** And the “specificity constant kcat/Km towards 2-ketoglutarate, smaller than that of GDHwt” value [2]?
**A.** Its value is ~3,000 fold.

**Q.** What about the “L-homoalanine produced from glucose” value [3] of the same molecule?
**A.** Its value is 0.1 g/L.

**Q.** And the “rescue of cell growth without valine” value [4]?
**A.** Its value is “successfully rescued the valine auxotrophic phenotype”.

**Q.** And the “decrease in Km on 2-ketobutyrate compared to GDHwt” value [5]?
**A.** The value was 4 fold.

**Q.** What about the “increase in kcat on 2-ketobutyrate compared to GDHwt” value [5] of the same molecule?
**A.** The value was 2 fold.

**Q.** What about the “kcat towards 2-ketobutyrate” value ([5]; 100 mM Tris pH 8.0, 0.2M NH4Cl, 0.2 mM NADPH) of the same molecule?
**A.** Its value is 90.2 s⁻¹.

**Q.** What about the Km ([5]; 100 mM Tris pH 8.0, 0.2M NH4Cl, 0.2 mM NADPH, read-out: Km towards 2-ketobutyrate) of the same molecule?
**A.** Its Km is 8.4 mM.

**Q.** And the “specificity constant kcat/Km towards 2-ketobutyrate, higher than towards 2-ketoglutarate” value ([5]; 2-ketobutyrate versus natural substrate 2-ketoglutarate)?
**A.** Its value is 50 fold.

**Q.** What about the “productivity of L-homoalanine” value ([6]; 10 g/L 2-ketobutyrate fed) of the same molecule?
**A.** Its value is 5.1 g/L/day.

**Q.** What about the “conversion yield of 2-ketobutyrate to L-homoalanine” value ([6]; 10 g/L 2-ketobutyrate, no glutamate feeding) of the same molecule?
**A.** Its value is 50%.

**Q.** What about the L-homoalanine produced ([6]; BW25113 transformant, 10 g/L 2-ketobutyrate fed, M9 medium, 37° C., 24 h) of the same molecule?
**A.** The L-homoalanine produced was 5.1.

Reference: patent US9550980B2, “Composition and methods for the production of L-homoalanine” (The Regents of the University of California, priority 2010, dated 2017)
